Our source for the Kd, binding result and EC50 values is CN116178545A (GUANGDONG FEIPENG PHARMACEUTICAL CO LTD, dated 2023).

Residue numbers refer to the chain shown, from its start.

Experiment [1] concerns the target T1, hPD-L1-his (human, UniProt Q9NZQ7 19-238).
T1 construct: extracellular domain; also called 携带his标签的人PD-L1胞外区重组蛋白; not shown: his tag
As to the kind of experiment: BLI (ForteBIO), hPD-L1-his on anti-Penta-HIS sensor. (Biolayer interferometry detects binding as a change in optical thickness at a sensor tip.)

Experiment [2] has as its target T2, 小鼠PD-L1 (on CHO cells) (mouse, UniProt Q9EP73 19-290).
T2 construct: whole, on cells; also called CHO-mPD-L1稳定细胞株; 稳定表达全长小鼠PD-L1的CHO
As to the kind of experiment: flow cytometry on CHO-mPD-L1 cells.

In experiment [3] the target is T3, 重组人PD-1蛋白(自产) (human, UniProt Q15116 25-167).
T3 construct: The words 携带hFc标签的 stand before the first protein of the list
As to the kind of experiment: ELISA, protein coated at 1μg/ml. In general terms: An ELISA detects its analyte on a solid surface through an enzyme-linked reagent.

Experiment [4] deals with T4, 重组人PD-L2蛋白 (human, UniProt Q9BQ51 20-219).
T4 construct: The words 携带hFc标签的 stand before the first protein of the list; also called Acrobiosystem Cat.PD2-H5251
T4 sequence (looked up): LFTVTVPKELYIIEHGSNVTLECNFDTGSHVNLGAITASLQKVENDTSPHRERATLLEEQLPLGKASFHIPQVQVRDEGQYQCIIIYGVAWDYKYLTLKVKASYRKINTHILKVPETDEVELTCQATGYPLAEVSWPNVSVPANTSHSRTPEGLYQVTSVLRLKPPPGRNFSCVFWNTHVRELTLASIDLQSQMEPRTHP
As to the kind of experiment: ELISA, protein coated at 1μg/ml.

The target in experiment [5] is T5, 重组人CD276蛋白 (human, UniProt Q5ZPR3-2 29-245).
T5 construct: The words 携带hFc标签的 stand before the first protein of the list; also called B7-H3; Acrobiosystem Cat.B73-H5253
T5 sequence (looked up): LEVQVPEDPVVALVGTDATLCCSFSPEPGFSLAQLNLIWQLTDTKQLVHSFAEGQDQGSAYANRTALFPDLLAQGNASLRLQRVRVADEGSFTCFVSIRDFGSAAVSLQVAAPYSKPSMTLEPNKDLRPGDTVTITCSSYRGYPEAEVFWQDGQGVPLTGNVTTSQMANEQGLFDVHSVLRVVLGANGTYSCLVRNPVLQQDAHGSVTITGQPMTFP
As to the kind of experiment: ELISA, protein coated at 1μg/ml.

In experiment [6] the target is T6, 重组人CD86蛋白 (human, UniProt P42081 26-247).
T6 construct: The words 携带hFc标签的 stand before the first protein of the list; also called Acrobiosystem Cat.CD6-H5257
T6 sequence (looked up): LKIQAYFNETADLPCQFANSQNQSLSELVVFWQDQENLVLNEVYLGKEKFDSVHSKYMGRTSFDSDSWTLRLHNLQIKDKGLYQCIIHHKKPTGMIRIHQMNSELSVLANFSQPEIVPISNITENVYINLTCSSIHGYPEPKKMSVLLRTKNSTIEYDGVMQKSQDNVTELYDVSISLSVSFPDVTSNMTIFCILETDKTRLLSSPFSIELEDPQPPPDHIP
The experiment is described as follows: ELISA, protein coated at 1μg/ml.

The target of experiment [7] is T7, 重组人CTLA-4蛋白 (human, UniProt P16410 37-162).
T7 construct: The words 携带hFc标签的 stand before the first protein of the list; also called Acrobiosystem Cat.CT4-H5255
The experiment is described as follows: ELISA, protein coated at 1μg/ml.

Experiment [8] addresses T8, 重组人CD28蛋白 (human, UniProt P10747 19-152).
T8 construct: The words 携带hFc标签的 stand before the first protein of the list; also called Acrobiosystem Cat.CD8-H525a
As to the kind of experiment: ELISA, protein coated at 1μg/ml.

Experiment [9] deals with T9, 重组人ICOS蛋白 (human, UniProt Q9Y6W8 21-140).
T9 construct: The words 携带hFc标签的 stand before the first protein of the list; also called Acrobiosystem Cat.ICS-H5250
T9 sequence (looked up): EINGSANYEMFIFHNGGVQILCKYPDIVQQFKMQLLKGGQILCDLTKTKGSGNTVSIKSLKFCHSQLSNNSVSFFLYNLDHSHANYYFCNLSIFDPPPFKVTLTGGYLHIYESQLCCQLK
As to the kind of experiment: ELISA, protein coated at 1μg/ml.

Experiment [10] addresses T10, 重组人ICOSLG蛋白 (human, UniProt O75144 19-258).
T10 construct: The words 携带hFc标签的 stand before the first protein of the list; also called Acrobiosystem Cat.B72-H5254
T10 sequence (looked up): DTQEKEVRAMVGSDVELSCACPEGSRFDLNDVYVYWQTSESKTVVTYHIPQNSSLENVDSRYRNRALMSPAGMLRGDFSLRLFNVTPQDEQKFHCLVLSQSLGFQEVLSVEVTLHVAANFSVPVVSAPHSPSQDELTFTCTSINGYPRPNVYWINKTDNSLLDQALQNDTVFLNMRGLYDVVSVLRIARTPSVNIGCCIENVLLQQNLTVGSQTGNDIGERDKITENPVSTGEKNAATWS
The experiment is described as follows: ELISA, protein coated at 1μg/ml.

In experiment [11] the target is T11, 人PD-L1 (on cells) (human, UniProt Q9NZQ7 19-290).
T11 construct: whole, on cells; One molecule for human PD-L1 on CHO-hPD-L1, on IFNγ-stimulated A375 and on CHO-hPD-L1-OKT3 cells; the cell is named under assay; also called CHO-hPD-L1稳定细胞株; 稳定表达人PD-L1的CHO
As to the kind of experiment: flow cytometry on IFNγ-stimulated A375 cells. On the technique in general: A flow cytometer gives signals particle by particle.

T11 sequence (Q9NZQ7 19-290): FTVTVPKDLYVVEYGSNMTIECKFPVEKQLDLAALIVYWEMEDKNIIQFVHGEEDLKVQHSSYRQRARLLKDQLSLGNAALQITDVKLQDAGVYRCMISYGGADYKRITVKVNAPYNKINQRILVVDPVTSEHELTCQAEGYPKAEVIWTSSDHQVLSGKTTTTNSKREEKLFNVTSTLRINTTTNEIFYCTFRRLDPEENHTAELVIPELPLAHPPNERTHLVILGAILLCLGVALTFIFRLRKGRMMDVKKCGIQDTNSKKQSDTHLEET
T3 sequence (Q15116 25-167): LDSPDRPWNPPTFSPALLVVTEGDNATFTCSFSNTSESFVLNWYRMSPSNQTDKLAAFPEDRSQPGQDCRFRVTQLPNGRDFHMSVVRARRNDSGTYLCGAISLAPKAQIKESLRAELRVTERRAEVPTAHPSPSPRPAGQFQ
T2 sequence (Q9EP73 19-290): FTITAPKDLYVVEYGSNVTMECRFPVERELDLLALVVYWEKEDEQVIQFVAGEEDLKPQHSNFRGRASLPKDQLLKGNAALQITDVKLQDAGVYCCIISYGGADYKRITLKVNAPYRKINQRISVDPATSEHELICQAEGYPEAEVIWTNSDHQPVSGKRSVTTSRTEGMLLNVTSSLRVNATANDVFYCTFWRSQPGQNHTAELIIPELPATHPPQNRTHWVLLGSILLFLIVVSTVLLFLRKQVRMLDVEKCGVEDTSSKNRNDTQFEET
T7 sequence (P16410 37-162): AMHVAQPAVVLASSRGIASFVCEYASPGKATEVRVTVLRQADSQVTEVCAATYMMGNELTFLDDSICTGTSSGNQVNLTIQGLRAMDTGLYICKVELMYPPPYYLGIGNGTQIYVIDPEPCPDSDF
T1 sequence (Q9NZQ7 19-238): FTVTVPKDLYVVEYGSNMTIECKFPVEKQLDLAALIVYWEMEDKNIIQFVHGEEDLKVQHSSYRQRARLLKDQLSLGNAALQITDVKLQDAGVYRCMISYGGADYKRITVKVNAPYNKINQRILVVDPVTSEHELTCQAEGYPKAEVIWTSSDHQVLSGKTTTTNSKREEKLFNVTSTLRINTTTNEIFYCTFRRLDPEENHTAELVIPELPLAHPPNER

B1: F016-870-hIgG1 (antibody, V domains shown)
VH: EVQLQESGPSLVKPSQTLSLTCSVTGDSITSGYWNWIRKFPGNKLEYMGYISYTGSTYQNPSLKSRISFTRDTSKNQYYLQLSSVTTEDTATYYCARSRAWIRTYFDYWGQGTTLTVSS
VL: EIVLTQSPALMAASPGEKVTITCSVSSSISSSNLHWYQQKSETSPKPWIYGTSNLASGVPVRFSGSGSGTSYSLTISSMEAEDAATYYCQQWSSYPLTFGAGTKLELKR
As a reminder, the Kd is the concentration at which binding is half-saturated. For B1, the Kd in experiment [1] was less than 1 pM.

B2: 176L1H2 (antibody, V domains shown)
VH: QVQLQESGPGLVKPSETLSLTCAVYGDSITSGYWNWIRKPPGKKLEYIGYISYTGSTYQNPSLKSRITMSRDTSKNQYYLKLSSVTAADTAVYYCARSRAWIRTYFDYWGQGTLVTVSS
VL: EIVLTQSPDFQSVTPKEKVTITCSVSSSISSSNLHWYQQKPDQSPKLWIYGTSNLASGVPSRFSGSGSGTDYTLTINSLEAEDAATYYCQQWSSYPLTFGQGTKLEIKR
notes: Whole humanized mAb expressed in 293 cells; detected with anti-human IgG; also called 抗人PD-L1人源化抗体176L1H2
A word on the EC50: it is the midpoint of the concentration-response curve. Lower therefore signals greater potency. Turning to B2, the binding result in experiment [2] is “no binding (tested: 20μg/ml)”; in experiment [3] it was “no binding (tested: 10μg/ml)”; in experiment [4], “no binding (tested: 10μg/ml)”; in experiment [5], “no binding (tested: 10μg/ml)”; in [6] it was “no binding (tested: 10μg/ml)”; in experiment [7], “no binding (tested: 10μg/ml)”. Further, the binding result in [8], in experiment [9] and in experiment [10] was “no binding (tested: 10μg/ml)” in each case. In [11], this molecule gave a concentration for a half-maximal effect (EC50) of approximately 0.2 nM.

B3: 176L3H2 (antibody, V domains shown)
VH: B2 VH
VL: B2 VL with L47P, T73S
notes: Whole humanized mAb expressed in 293 cells; detected with anti-human IgG; also called 抗人PD-L1人源化抗体176L3H2
Regarding B3, the binding result is on record as “no binding (tested: 20μg/ml)” in experiment [2]; “no binding (tested: 10μg/ml)” in experiment [3]; “no binding (tested: 10μg/ml)” in experiment [4]; “no binding (tested: 10μg/ml)” in [5]; “no binding (tested: 10μg/ml)” in experiment [6]; “no binding (tested: 10μg/ml)” in experiment [7]. The binding result in experiment [8], in [9] and in experiment [10] was “no binding (tested: 10μg/ml)” throughout. This molecule yielded an EC50 in [11] of approximately 0.2 nM.

B4: 176L2H2 (antibody, V domains shown)
VH: B2 VH
VL: B2 VL with L47P
notes: Whole humanized mAb expressed in 293 cells; detected with anti-human IgG; also called 抗人PD-L1人源化抗体176L2H2
Consider B4, for which the binding result in experiment [2] is reported as “no binding (tested: 20μg/ml)”; in [3], “no binding (tested: 10μg/ml)”; in [4], “no binding (tested: 10μg/ml)”; in experiment [5], “no binding (tested: 10μg/ml)”; in [6] it was “no binding (tested: 10μg/ml)”; in experiment [7] it was “no binding (tested: 10μg/ml)”. Also, the binding result in [8], in experiment [9] and in [10] was “no binding (tested: 10μg/ml)” each time. The molecule further returned an EC50 in experiment [11] of approximately 0.2 nM.

B5: 176L2H3 (antibody, V domains shown)
VH: B2 VH with M69F
VL: B2 VL with L47P
notes: Whole humanized mAb expressed in 293 cells; detected with anti-human IgG; also called 抗人PD-L1人源化抗体176L2H3
On to B5, for which the binding result is “no binding (tested: 20μg/ml)” in experiment [2]; “no binding (tested: 10μg/ml)” in experiment [3]; “no binding (tested: 10μg/ml)” in experiment [4]; “no binding (tested: 10μg/ml)” in experiment [5]; “no binding (tested: 10μg/ml)” in experiment [6]; “no binding (tested: 10μg/ml)” in experiment [7]. In addition, the binding result in [8], in [9] and in experiment [10] was “no binding (tested: 10μg/ml)” throughout. In [11], this molecule had an EC50 of approximately 0.2 nM.

B6: 176L2H1 (antibody, V domains shown)
VH: B2 VH with K44G
VL: B2 VL with L47P
notes: Whole humanized mAb expressed in 293 cells; detected with anti-human IgG; also called 抗人PD-L1人源化抗体176L2H1
Regarding B6, the binding result is “no binding (tested: 20μg/ml)” in experiment [2]; “no binding (tested: 10μg/ml)” in [3]; “no binding (tested: 10μg/ml)” in experiment [4]; “no binding (tested: 10μg/ml)” in experiment [5]; “no binding (tested: 10μg/ml)” in experiment [6]; “no binding (tested: 10μg/ml)” in [7]. In addition, the binding result in experiment [8], in experiment [9] and in experiment [10] was “no binding (tested: 10μg/ml)” in each case. Further, the EC50 in experiment [11] is approximately 0.2 nM.

B7: 176L1H1 (antibody, V domains shown)
VH: B2 VH with K44G
VL: B2 VL
notes: Whole humanized mAb expressed in 293 cells, protein A purified; hIgG1 isotype control; detected with anti-human IgG; also called 抗人PD-L1人源化抗体176L1H1
In the case of B7, the binding result was “no binding (tested: 20μg/ml)” in experiment [2]; “no binding (tested: 10μg/ml)” in [3]; “no binding (tested: 10μg/ml)” in experiment [4]; “no binding (tested: 10μg/ml)” in [5]; “no binding (tested: 10μg/ml)” in [6]; “no binding (tested: 10μg/ml)” in experiment [7]. Further, the binding result in experiment [8], in experiment [9] and in experiment [10] was “no binding (tested: 10μg/ml)” throughout. For the same molecule, in experiment [11], the EC50 is approximately 0.2 nM.

B8: 176L1H3 (antibody, V domains shown)
VH: B2 VH with M69F
VL: B2 VL
notes: Whole humanized mAb expressed in 293 cells; detected with anti-human IgG; also called 抗人PD-L1人源化抗体176L1H3
As to B8, the binding result is “no binding (tested: 20μg/ml)” in experiment [2]; “no binding (tested: 10μg/ml)” in experiment [3]; “no binding (tested: 10μg/ml)” in experiment [4]; “no binding (tested: 10μg/ml)” in experiment [5]; “no binding (tested: 10μg/ml)” in [6]; “no binding (tested: 10μg/ml)” in [7]. In addition, the binding result in experiment [8], in experiment [9] and in experiment [10] was “no binding (tested: 10μg/ml)” throughout. Further, the EC50 in experiment [11] was approximately 0.2 nM.
